Experiments:
Test in all cases: cell-based or functional assay
[1] = target: HIV-1 Env of pseudovirus 0815.v3.c3 (HIV-1)
[2] = target: HIV-1 Env of pseudovirus 235-47 (HIV-1)
[3] = target: HIV-1 Env of pseudovirus 263-8 (HIV-1)
[4] = target: HIV-1 Env of pseudovirus 3016.v5.c45 (HIV-1)
[5] = target: HIV-1 Env of pseudovirus 3415.v1.c1 (HIV-1)
[6] = target: HIV-1 Env of pseudovirus 3817.v2.c59 (HIV-1)
[7] = target: HIV-1 Env of pseudovirus 6041.v3.c23 (HIV-1)
[8] = target: HIV-1 Env of pseudovirus 620345.c01 (HIV-1)
[9] = target: HIV-1 Env of pseudovirus 6240_08_TA5_4622 (HIV-1)
[10] = target: HIV-1 Env of pseudovirus 6480.v4.c25 (HIV-1)
[11] = target: HIV-1 Env of pseudovirus 6535.3 (HIV-1)
[12] = target: HIV-1 Env of pseudovirus 6545.v4.c1 (HIV-1)
[13] = target: HIV-1 Env of pseudovirus 7030102001E5(Rev-) (HIV-1)
[14] = target: HIV-1 Env of pseudovirus 89-F1_2_25 (HIV-1)
[15] = target: HIV-1 Env of pseudovirus 928-28 (HIV-1)
[16] = target: HIV-1 Env of pseudovirus AC10.0.29 (HIV-1)
[17] = target: HIV-1 Env of pseudovirus BJOX015000.11.5 (HIV-1)
[18] = target: HIV-1 Env of pseudovirus C1080.c03 (HIV-1)
[19] = target: HIV-1 Env of pseudovirus CAAN5342.A2 (HIV-1)
[20] = target: HIV-1 Env of pseudovirus CAP210.2.00.E8 (HIV-1)
[21] = target: HIV-1 Env of pseudovirus CNE20 (HIV-1)
[22] = target: HIV-1 Env of pseudovirus CNE5 (HIV-1)
[23] = target: HIV-1 Env of pseudovirus Ce1172_H1 (HIV-1)
[24] = target: HIV-1 Env of pseudovirus Ce1176_A3 (HIV-1)
[25] = target: HIV-1 Env of pseudovirus Ce2010_F5 (HIV-1)
[26] = target: HIV-1 Env of pseudovirus Ce703010054_2A2 (HIV-1)
[27] = target: HIV-1 Env of pseudovirus HIV-16055-2.3 (HIV-1)
[28] = target: HIV-1 Env of pseudovirus P1981_C5_3 (HIV-1)
[29] = target: HIV-1 Env of pseudovirus PVO.4 (HIV-1)
[30] = target: HIV-1 Env of pseudovirus Q259.d2.17 (HIV-1)
[31] = target: HIV-1 Env of pseudovirus Q769.d22 (HIV-1)
[32] = target: HIV-1 Env of pseudovirus REJO4541.67 (HIV-1)
[33] = target: HIV-1 Env of pseudovirus SC422661.8 (HIV-1)
[34] = target: HIV-1 Env of pseudovirus T250-4 (HIV-1)
[35] = target: HIV-1 Env of pseudovirus T278-50 (HIV-1)
[36] = target: HIV-1 Env of pseudovirus TRJO4551.58 (HIV-1)
[37] = target: HIV-1 Env of pseudovirus WEAU_d15_410_787 (HIV-1)
[38] = target: HIV-1 Env of pseudovirus X1254_c3 (HIV-1)
[39] = target: HIV-1 Env of pseudovirus ZM53M.PB12 (HIV-1)

B1: 10-1074 (antibody, V domains shown)
VH: QVQLQESGPGLVKPSETLSVTCSVSGDSMNNYYWTWIRQSPGKGLEWIGYISDRESATYNPSLNSRVVISRDTSKNQLSLKLNSVTPADTAVYYCATARRGQRIYGVVSFGEFFYYYSMDVWGKGTTVTVSS
VL: SYVRPLSVALGETARISCGRQALGSRAVQWYQHRPGQAPILLIYNNQDRPSGIPERFSGTPDINFGTRATLTISGVEAGDEADYYCHMWDSRSGFSWSFGGATRLTVL
IC50 in TZM-bl assay [1]: 0.043 µg/mL | IC80 in TZM-bl assay [1]: 0.197 µg/mL | IC50 in TZM-bl assay [2]: 0.058 µg/mL | IC80 in TZM-bl assay [2]: 0.224 µg/mL | IC50 in TZM-bl assay [3]: 0.416 µg/mL | IC80 in TZM-bl assay [3]: 5.71 µg/mL | IC50 in TZM-bl assay [4]: > 10 µg/mL | IC80 in TZM-bl assay [4]: > 10 µg/mL | IC50 in TZM-bl assay [5]: > 10 µg/mL | IC80 in TZM-bl assay [5]: > 10 µg/mL | IC50 in TZM-bl assay [6]: 0.706 µg/mL | IC80 in TZM-bl assay [6]: 4.49 µg/mL | IC50 in TZM-bl assay [7]: > 10 µg/mL | IC80 in TZM-bl assay [7]: > 10 µg/mL | IC50 in TZM-bl assay [8]: > 10 µg/mL | IC80 in TZM-bl assay [8]: > 10 µg/mL | IC50 in TZM-bl assay [9]: 0.038 µg/mL | IC80 in TZM-bl assay [9]: 0.131 µg/mL | IC50 in TZM-bl assay [10]: 0.006 µg/mL | IC80 in TZM-bl assay [10]: 0.023 µg/mL | IC50 in TZM-bl assay [11]: 0.007 µg/mL | IC80 in TZM-bl assay [11]: 0.022 µg/mL | IC50 in TZM-bl assay [12]: > 10 µg/mL | IC80 in TZM-bl assay [12]: > 10 µg/mL | IC50 in TZM-bl assay [13]: 0.009 µg/mL | IC80 in TZM-bl assay [13]: 0.019 µg/mL | IC50 in TZM-bl assay [14]: > 10 µg/mL | IC80 in TZM-bl assay [14]: > 10 µg/mL | IC50 in TZM-bl assay [15]: 0.616 µg/mL | IC80 in TZM-bl assay [15]: 2.4 µg/mL | IC50 in TZM-bl assay [16]: 0.015 µg/mL | IC80 in TZM-bl assay [16]: 0.043 µg/mL | IC50 in TZM-bl assay [17]: > 10 µg/mL | IC80 in TZM-bl assay [17]: > 10 µg/mL | IC50 in TZM-bl assay [18]: > 10 µg/mL | IC80 in TZM-bl assay [18]: > 10 µg/mL | IC50 in TZM-bl assay [19]: 0.005 µg/mL | IC80 in TZM-bl assay [19]: 0.019 µg/mL | IC50 in TZM-bl assay [20]: > 10 µg/mL | IC80 in TZM-bl assay [20]: > 10 µg/mL | IC50 in TZM-bl assay [21]: 0.002 µg/mL | IC80 in TZM-bl assay [21]: 0.005 µg/mL | IC50 in TZM-bl assay [22]: > 10 µg/mL | IC80 in TZM-bl assay [22]: > 10 µg/mL | IC50 in TZM-bl assay [23]: 0.019 µg/mL | IC80 in TZM-bl assay [23]: 0.083 µg/mL | IC50 in TZM-bl assay [24]: 0.022 µg/mL | IC80 in TZM-bl assay [24]: 0.07 µg/mL | IC50 in TZM-bl assay [25]: > 10 µg/mL | IC80 in TZM-bl assay [25]: > 10 µg/mL | IC50 in TZM-bl assay [26]: > 10 µg/mL | IC80 in TZM-bl assay [26]: > 10 µg/mL | IC50 in TZM-bl assay [27]: > 10 µg/mL | IC80 in TZM-bl assay [27]: > 10 µg/mL | IC50 in TZM-bl assay [28]: 0.004 µg/mL | IC80 in TZM-bl assay [28]: 0.013 µg/mL | IC50 in TZM-bl assay [29]: 0.072 µg/mL | IC80 in TZM-bl assay [29]: 0.252 µg/mL | IC50 in TZM-bl assay [30]: > 10 µg/mL | IC80 in TZM-bl assay [30]: > 10 µg/mL | IC50 in TZM-bl assay [31]: > 10 µg/mL | IC80 in TZM-bl assay [31]: > 10 µg/mL | IC50 in TZM-bl assay [32]: > 10 µg/mL | IC80 in TZM-bl assay [32]: > 10 µg/mL | IC50 in TZM-bl assay [33]: 0.058 µg/mL | IC80 in TZM-bl assay [33]: 0.368 µg/mL | IC50 in TZM-bl assay [34]: 0.002 µg/mL | IC80 in TZM-bl assay [34]: 0.005 µg/mL | IC50 in TZM-bl assay [35]: 1.71 µg/mL | IC80 in TZM-bl assay [35]: > 10 µg/mL | IC50 in TZM-bl assay [36]: 0.057 µg/mL | IC80 in TZM-bl assay [36]: 0.218 µg/mL | IC50 in TZM-bl assay [37]: 0.031 µg/mL | IC80 in TZM-bl assay [37]: 0.112 µg/mL | IC50 in TZM-bl assay [38]: 0.063 µg/mL | IC80 in TZM-bl assay [38]: 0.239 µg/mL | IC50 in TZM-bl assay [39]: > 10 µg/mL | IC80 in TZM-bl assay [39]: > 10 µg/mL
